Consider one protein from patent US20020192789.

Where a chain is given by its changes, count along the chain named.

For data set [1], the target named is 17 isolates from rounds 2-5 of screening exhibiting the Asp-Arg motif before the scissile bond (P2-P1).
For data set [2], the target named is T1, … (negative control test peptide).
T1 chain: AVLSNVMFI

Another data set deals with T2, DINDDRSLF
T2 chain: DINDDRSLF

Another data set deals with T3, GDDDDK-β-naphthylamine.
T3 chain: GDDDDK

Data set [3] addresses T4, GDDDDKIYV (positive control test peptide).
T4 chain: GDDDDKIYV

The target of the next data set is T5, GNYTDRMFI
T5 chain: GNYTDRMFI

The next data set deals with T6, GNYTDRRFI
T6 chain: GNYTDRRFI

For another data set, the target named is T7, GNYTDRYFI
T7 chain: GNYTDRYFI

The target of the next data set is T8, NKAKDRMFI
T8 chain: NKAKDRMFI

Data set [4] concerns the target T9, phage isolate 5-A08 display polypeptide.
T9 chain: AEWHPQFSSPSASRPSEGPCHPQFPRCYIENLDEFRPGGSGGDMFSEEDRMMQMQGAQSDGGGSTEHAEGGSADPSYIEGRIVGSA

The target of data set [5] is T10, phage isolate 5-B05 display polypeptide.
T10 chain: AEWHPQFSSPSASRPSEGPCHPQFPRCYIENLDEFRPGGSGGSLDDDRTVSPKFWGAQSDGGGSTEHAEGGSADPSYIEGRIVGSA

Data set [6] has as its target T11, phage isolate 5-H04 display polypeptide.
T11 chain: T10 chain with S43D, L44I, D45N, T49S, V50L, S51F, P52S, K53E, F54S, W55S

Data set [7] addresses T12, phage isolate 5-H11 display polypeptide.
T12 chain: T10 chain with S43M, L44G, R48D, T49K, V50I, S51Y, P52V, K53Y, F54K, W55T

B1: recombinant light chain enterokinase (Novagen, Madison, Wis.) (protein)
chain: IVGGSDSREGAWPWVVALYFDDQQVCGASLVSRDWLVSAAHCVYGRNMEPSKWKAVLGLHMASNLTSPQIETRLIDQIVINPHYNKRRKNNDIAMMHLEMKVNYTDYIQPICLPEENQVFPPGRICSIAGWGALIYQGSTADVLQEADVPLLSNEKCQQQMPEYNITENMVCAGYEAGGVDSCQGDSGGPLMCQENNRWLLAGVTSFGYQCALPNRPGVYARVPRFTEWIQSFLH
Consider B1, for which, in data set [1], the “cleavage at 300 nM enterokinase (phage ELISA)” value is listed as “All of the phage isolates were readily cleaved when the enterokinase concentration was raised to 300 nM”. Moreover, in data set [2], the “enterokinase cleavage (HPLC, mass spectroscopy)” value is “No cleavage occurred with the negative control peptide (SEQ ID NO:198)”. Further, the Cleavage Rate turned out to be 1.43 nmol/min with DINDDRSLF; 0.46 nmol/min with GDDDDK-β-naphthylamine; 0.34 nmol/min in data set [3]; 0.81 nmol/min with GNYTDRMFI; 0.18 nmol/min in the data set with GNYTDRRFI; 0.24 nmol/min with GNYTDRYFI. This protein gave a Cleavage Rate in the data set with NKAKDRMFI of 0.26 nmol/min. For the same protein, the rate relative to standard substrate in the data set with DINDDRSLF came to 3.1; with GDDDDK-β-naphthylamine, 1; in [3], 0.7; in the data set with GNYTDRMFI, 1.8; with GNYTDRRFI, 0.4; in the data set with GNYTDRYFI, 0.5. In addition, the rate relative to standard substrate with NKAKDRMFI stood at 0.6. For the same protein, the ratio (Va/Vb) against reference peptide GDDDDK-βNA (relative kcat/Km) with DINDDRSLF was found to be 30; in data set [3], 1; with GNYTDRMFI, 3.5. For the same protein, the “enterokinase cleavage rate (phage ELISA, release from streptavidin)” value in data set [4] is “the cleavage rate for ... 5-H11 (SEQ ID NO:194) was slower than for at least three of the other isolates, i.e., 5-A08 (SEQ ID NO:137), 5-B05 (SEQ ID NO:145) and 5-H04 (SEQ ID NO:188)”; in data set [5], “the cleavage rate for ... 5-H11 (SEQ ID NO:194) was slower than for at least three of the other isolates, i.e., 5-A08 (SEQ ID NO:137), 5-B05 (SEQ ID NO:145) and 5-H04 (SEQ ID NO:188)”; in data set [6] it was “isolate 5-H04 (SEQ ID NO:188) shown in Table 5 was the most readily cut”; in [7], “the cleavage rate for the (Asp)4-Lys-containing recognition sequence 5-H11 (SEQ ID NO:194) was slower than for at least three of the other isolates”.
